In patent US20160033502:

Target: T1, activated insulin receptor (pYpY1162/1163-IR) of mouse MS-1 endothelial cells, P15208
T1 chain: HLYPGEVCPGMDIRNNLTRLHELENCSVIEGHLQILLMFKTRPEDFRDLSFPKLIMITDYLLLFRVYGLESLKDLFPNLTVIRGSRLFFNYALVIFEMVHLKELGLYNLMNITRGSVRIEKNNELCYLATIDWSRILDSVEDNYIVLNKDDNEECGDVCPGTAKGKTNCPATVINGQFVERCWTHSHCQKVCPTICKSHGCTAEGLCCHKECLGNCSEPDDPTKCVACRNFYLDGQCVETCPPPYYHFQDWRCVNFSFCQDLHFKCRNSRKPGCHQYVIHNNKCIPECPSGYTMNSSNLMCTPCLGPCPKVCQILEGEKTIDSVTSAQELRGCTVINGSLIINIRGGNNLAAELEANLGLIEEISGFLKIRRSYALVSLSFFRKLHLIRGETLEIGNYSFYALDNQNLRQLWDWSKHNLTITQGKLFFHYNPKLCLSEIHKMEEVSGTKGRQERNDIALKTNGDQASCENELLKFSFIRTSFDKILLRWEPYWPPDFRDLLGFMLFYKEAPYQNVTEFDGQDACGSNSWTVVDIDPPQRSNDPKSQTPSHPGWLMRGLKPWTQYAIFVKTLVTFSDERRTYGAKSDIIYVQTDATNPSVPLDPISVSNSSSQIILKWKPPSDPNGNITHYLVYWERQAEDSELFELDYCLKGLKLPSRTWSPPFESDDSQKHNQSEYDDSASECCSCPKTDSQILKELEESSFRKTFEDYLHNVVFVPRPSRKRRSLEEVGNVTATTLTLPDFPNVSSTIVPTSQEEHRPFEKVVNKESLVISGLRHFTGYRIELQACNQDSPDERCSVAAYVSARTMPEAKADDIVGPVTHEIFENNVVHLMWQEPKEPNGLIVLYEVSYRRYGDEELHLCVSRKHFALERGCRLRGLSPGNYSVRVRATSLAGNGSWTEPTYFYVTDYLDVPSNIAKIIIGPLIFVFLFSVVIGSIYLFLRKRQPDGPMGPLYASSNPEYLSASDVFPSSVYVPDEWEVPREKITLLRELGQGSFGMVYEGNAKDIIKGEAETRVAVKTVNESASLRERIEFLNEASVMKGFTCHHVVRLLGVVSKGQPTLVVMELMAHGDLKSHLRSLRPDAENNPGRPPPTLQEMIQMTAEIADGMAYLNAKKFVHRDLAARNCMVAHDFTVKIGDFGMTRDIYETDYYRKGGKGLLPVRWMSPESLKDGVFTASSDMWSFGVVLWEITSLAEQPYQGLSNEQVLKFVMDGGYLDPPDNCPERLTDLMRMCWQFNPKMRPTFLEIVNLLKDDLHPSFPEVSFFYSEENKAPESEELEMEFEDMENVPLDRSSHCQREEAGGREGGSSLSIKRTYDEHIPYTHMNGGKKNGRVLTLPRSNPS

B1: HA-tagged C215S mutant form of full-length PTP1B (protein)
chain: MEMEKEFEQIDKSGSWAAIYQDIRHEASDFPCRVAKLPKNKNRNRYRDVSPFDHSRIKLHQEDNDYINASLIKMEEAQRSYILTQGPLPNTCGHFWEMVWEQKSRGVVMLNRVMEKGSLKCAQYWPQKEEKEMIFEDTNLKLTLISEDIKSYYTVRQLELENLTTQETREILHFHYTTWPDFGVPESPASFLNFLFKVRESGSLSPEHGPVVVHSSAGIGRSGTFCLADTCLLLMDKRKDPSSVDIKKVLLEMRKFRMGLIQTADQLRFSYLAVIEGAKFIMGDSSVQDQWKELSHEDLEPPPEHIPPPPRPPKRILEPHNGKCREFFPNHQWVKEETQEDKDCPIKEEKGSPLNAAPYGIESMSQDTEVRSRVVGGSLRGAQAASPAKGEPSLPEKDEDHALSYWKPFLVNMCVATVLTAGAYLCYRFLFNSNT
IR pYpY1162/1163 phosphorylation (immunoblot, ratio of phosphorylated InRβ to total InRβ): such eNOS ablation-caused defect of insulin signaling was significantly restored by ectopic expression of PTP1B-C215S
